For one substance, OD450/µg IgG results are on record in patent US20210009686A1.

In assay [1] the target is claudin 18.2 (CLDN18.2) (human). Description: in-cell ELISA on HEK293-CLDN18.2 cells. On the technique in general: ELISA stands for enzyme-linked immunosorbent assay.
The target of assay [2] is claudin 18.1 (CLDN18.1) (human) (UniProt P56856). Nature of the assay: in-cell ELISA on HEK293-CLDN18.1 cells.
Sequence of claudin 18.1 (CLDN18.1) (human) (P56856 whole entry): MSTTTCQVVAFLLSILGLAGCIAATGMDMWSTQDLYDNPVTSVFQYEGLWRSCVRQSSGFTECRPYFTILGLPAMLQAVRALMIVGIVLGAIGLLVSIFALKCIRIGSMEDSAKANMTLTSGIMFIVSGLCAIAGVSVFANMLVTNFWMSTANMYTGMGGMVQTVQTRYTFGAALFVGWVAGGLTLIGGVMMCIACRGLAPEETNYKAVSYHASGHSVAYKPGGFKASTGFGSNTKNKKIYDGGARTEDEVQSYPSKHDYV

For the substance mouse IgG (control) (antibody), the results for the OD450/µg IgG in assay [1] and in assay [2] were 3.23 OD450/µg IgG and 1.54 OD450/µg IgG, respectively.
